Assay results published in patent US20080063635A1 (Kyowa Kirin, published 2008).

B1: 4D11-G[1/1/4/4] (antibody, V domains shown)
VH: QLQLQESGPGLLKPSETLSLTCTVSGGSISSPGYYGGWIRQPPGKGLEWIGSIYKSGSTYHNPSLKSRVTISVDTSKNQFSLKLSSVTAADTAVYYCTRPVVRYFGWFDPWGQGTLVTVSS
VL: AIQLTQSPSSLSASVGDRVTITCRASQGISSALAWYQQKPGKAPKLLIYDASNLESGVPSRFSGSGSGTDFTLTISSLQPEDFATYYCQQFNSYPTFGQGTKVEIK
notes: Chimeric heavy chain constant region: CH1 and hinge from human IgG1 (N5KG1), CH2 and CH3 from human IgG4 (N5KG4PE); also called IgG[1/1/4/4]; N5KG1144 with 4D11 variable regions
B2: 4D11-G[4/4/4/1] (antibody, V domains shown)
VH: B1 VH
VL: B1 VL
notes: Chimeric heavy chain constant region: CH1, hinge and CH2 from human IgG4 (N5KG4PE, with S228P and L235E), CH3 from human IgG1; also called IgG[4/4/4/1]; N5KG4441 with 4D11 variable regions
B3: 4D11-G[4/4/1/4] (antibody, V domains shown)
VH: B1 VH
VL: B1 VL
notes: Chimeric heavy chain constant region: CH1 and hinge from human IgG4 (N5KG4PE, with S228P and L235E), CH2 from human IgG1, CH3 from human IgG4; also called IgG[4/4/1/4]; N5KG4414 with 4D11 variable regions
B4: 4D11-G[4/4/1/1] (antibody, V domains shown)
VH: B1 VH
VL: B1 VL
notes: Chimeric heavy chain constant region: CH1 and hinge from human IgG4 (N5KG4PE, with S228P and L235E), CH2 and CH3 from human IgG1 (N5KG1); also called IgG[4/4/1/1]; N5KG4411 with 4D11 variable regions

Each binder was assayed against T1, CD40 (UniProt P25942 21-277, limits assumed) (assay: flow cytometry on Ramos cells, R-PE anti-human antibody).
T1 construct: whole, on cells; also called CD40 on Ramos cells
Description: A Ramos cell line was suspended in a PBS staining buffer (SB) containing 0.1% NaN₃ and 2% FCS at a concentration of 2×10⁶/ml. The cell suspension (100 μl/well) was dispensed into wells of a 96-well round-bottom plate (manufactured by Becton, Dickinson and Company). Each hybridoma culture supernatant (50 μl) was added thereto, followed by incubation at a temperature below freezing for 30 minutes. A human IgG1 antibody to human serum albumin as a negative control was adjusted to a concentration of 2 μg/ml in a hybridoma culture medium. The medium (50 μl) was added to the plate, followed by incubation at a temperature below freezing for 15 minutes. After washing the plate with SB, 50 μl of a 250-fold diluted R-PE fluorescently labeled anti-human antibody (Southern Biotechnology Associates, Inc.) was added to the plate, followed by incubation at a temperature below freezing for 15 minutes. After washing with SB twice, the plate was suspended in 300 to 500 μl of a FACS buffer, and the fluorescence intensity of each cell was measured using FACS (FACSort, FACScan, manufactured by Becton, Dickinson and Company).

T1 sequence (P25942 21-277 limits assumed): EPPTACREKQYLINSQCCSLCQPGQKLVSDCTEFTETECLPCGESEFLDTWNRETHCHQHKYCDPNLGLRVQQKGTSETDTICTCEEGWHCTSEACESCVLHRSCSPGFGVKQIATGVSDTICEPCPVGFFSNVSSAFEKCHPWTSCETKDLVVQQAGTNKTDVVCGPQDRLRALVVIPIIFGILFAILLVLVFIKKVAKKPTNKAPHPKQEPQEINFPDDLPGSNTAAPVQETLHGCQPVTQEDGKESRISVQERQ

binding result | Binder
binds | B1
binds | B2
binds | B3
binds | B4
